Reference: patent US20260297181 (published 2026)
Numbering of substitutions follows the chain as printed. Numbers in names are those of the source.

B1: WT anti-insulin scFv (HB125) (antibody)
chain: MAQIQLVQSGPELKKPGETVKISCKASGYTFTDYSMHWVKQAPGKGLKWMDWINTETGVPTYADDFKGRFAFSLETSANTAYLQINDLKNEDTATYFCTRGYGKGYFDVWGAGTTVTVSSAKSTPPSVYPLAPGSGGGGSGGGGSGGGGSQIVLTQSPTIMSASLGERVTMTCTASSSVSSSYLHWYQQKPGSSPKLWIYSTSNLASGVPARFSGSGSGTSYSLTISSMEAEDAATYYCHQYHRSPPTFGAGTKLELKRADAA
B2: gsLOV (antibody)
chain: MAQIQLVQSGPELKKPGETVKISCKASGYTFTDYSMHWVKQAPGKGLKWMDWINTETGVPTYADDFKGRFAFSLETSANTAYLQINDLKNEDTATYFCTRGYGKGYFDVWGAGTTVTVSSAKSTPPSVYPLAPGSGGGGSGEFLATTLERIEKNFVITDPRLPDNPIIFASDSFLQLTEYSREEILGRNCRFLQGPETDRATVRKIRDAIDNQTEVTVQLINYTKSGKKFWNLFHLQPMRDQKGDVQYFIGVQLDGTEHVRDAAEREAVMLIKKTAEEIDEAAKELGGGGSQIVLTQSPTIMSASLGERVTMTCTASSSVSSSYLHWYQQKPGSSPKLWIYSTSNLASGVPARFSGSGSGTSYSLTISSMEAEDAATYYCHQYHRSPPTFGAGTKLELKRADAAKL
B3: gsLOV I272E, A276E "light" (antibody)
chain: B2 chain with I272E, A276E
B4: gsLOV C190A "dark" (antibody)
chain: B2 chain with C190A
B5: nolinkLOV C185A "dark" (antibody)
chain: MAQIQLVQSGPELKKPGETVKISCKASGYTFTDYSMHWVKQAPGKGLKWMDWINTETGVPTYADDFKGRFAFSLETSANTAYLQINDLKNEDTATYFCTRGYGKGYFDVWGAGTTVTVSSAKSTPPSVYPLAPGSGEFLATTLERIEKNFVITDPRLPDNPIIFASDSFLQLTEYSREEILGRNARFLQGPETDRATVRKIRDAIDNQTEVTVQLINYTKSGKKFWNLFHLQPMRDQKGDVQYFIGVQLDGTEHVRDAAEREAVMLIKKTAEEIDEAAKELQIVLTQSPTIMSASLGERVTMTCTASSSVSSSYLHWYQQKPGSSPKLWIYSTSNLASGVPARFSGSGSGTSYSLTISSMEAEDAATYYCHQYHRSPPTFGAGTKLELKRADAAKL
B6: nolinkLOV (antibody)
chain: B5 chain with A185C
B7: nolinkLOV I267E, A271E "light" (antibody)
chain: B5 chain with A185C, I267E, A271E

molecular target: T1, insulin (human, UniProt P01308); assay: BLI
T1 sequence (P01308 25-54, chain 1 of 2): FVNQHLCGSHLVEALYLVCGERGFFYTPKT
T1 sequence (P01308 90-110, chain 2 of 2): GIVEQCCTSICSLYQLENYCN

Row | Kd [nM] | Binder
1 | 55.2 | B1
2 | 100 | B2
3 | 63.8 | B3
4 | 104 | B4

molecular target: T1, insulin; assay: BLI; remark: another data set of the same source

Row | Kd [nM] | Binder
5 | 55.2 | B1
6 | 198 | B5
7 | 78.5 | B6
8 | 68.7 | B7
